Data: paper PMC5818551
“And” between values parts separate entries of the source, which are not always exact repeats. Equal values may be shown once.

Experiments:
full-length gephyrin rC4 [1] = molecular target: full-length gephyrin rC4
full-length gephyrin rC4 [2] = assay: ITC
full-length gephyrin rC4 [3] = assay: cross-linking; EDC cross-linking of purified full-length gephyrin and βL-wt, 6% SDS-PAGE with Coomassie staining, trimer band extracted, tryptic digestion and LC-MS/MS peptide mass fingerprinting
[4] = molecular target: gephyrin E-domain (GephE); assay: ITC
[5] = molecular target: gephyrin E-domain (GephE); assay: not stated; data not shown; physiologic salt concentrations and pH 7.4-8.0

Question: Which Deff of extrasynaptic trajectories above the threshold of 0.02 µm^2/s (sptPALM, rat spinal cord neurons), Q1/Q2/Q3; value: the median Q2 (full-length gephyrin rC4 [1]) does the source give for “GlyRβ-D407P/F408G: mEos4b-tagged full-length human GlyRβ with D407P and F408G (from UniProt P48167-1 23-497) (receptor)” here?
Answer: 0.09 µm^2 · s^−1

Question: What about the Deff of synaptic trajectories above the threshold of 0.02 µm^2/s (sptPALM, rat spinal cord neurons), Q1/Q2/Q3; value: the median Q2 (full-length gephyrin rC4 [1]) of the same substance?
Answer: 0.04 µm^2 · s^−1

Question: And the explored area of extrasynaptic trajectories above the threshold of 0.02 µm^2/s (sptPALM, rat spinal cord neurons), Q1/Q2/Q3; value: the median Q2 (full-length gephyrin rC4 [1])?
Answer: 0.00152 µm^2

Question: And the explored area of synaptic trajectories above the threshold of 0.02 µm^2/s (sptPALM, rat spinal cord neurons), Q1/Q2/Q3; value: the median Q2 (full-length gephyrin rC4 [1])?
Answer: 0.00086 µm^2

Question: Which dH (full-length gephyrin rC4 [2]) does the source give for “GlyR β-loop βL-HI, residues 394-426 (from UniProt P20781 416-448) (peptide)” here?
Answer: -90 kJ/mol

Question: Which Deff of extrasynaptic trajectories above the threshold of 0.02 µm^2/s (sptPALM, rat spinal cord neurons), Q1/Q2/Q3; value: the median Q2 (full-length gephyrin rC4 [1]) does the source give for “GlyRβ-geph^-: mEos4b-tagged full-length human GlyRβ with F398A/I400A (from UniProt P48167-1 23-497) (receptor)” here?
Answer: 0.11 µm^2 · s^−1

Question: And the Deff of synaptic trajectories above the threshold of 0.02 µm^2/s (sptPALM, rat spinal cord neurons), Q1/Q2/Q3; value: the median Q2 (full-length gephyrin rC4 [1])?
Answer: 0.09 µm^2 · s^−1

Question: What about the explored area of extrasynaptic trajectories above the threshold of 0.02 µm^2/s (sptPALM, rat spinal cord neurons), Q1/Q2/Q3; value: the median Q2 (full-length gephyrin rC4 [1]) of the same substance?
Answer: 0.00183 µm^2

Question: And the explored area of synaptic trajectories above the threshold of 0.02 µm^2/s (sptPALM, rat spinal cord neurons), Q1/Q2/Q3; value: the median Q2 (full-length gephyrin rC4 [1])?
Answer: 0.00151 µm^2

Question: “GlyRβ-HI: mEos4b-tagged full-length human GlyRβ with deletion ΔV378-L393 (from UniProt P48167-1 23-497) (receptor)” was tested. Which Deff of extrasynaptic trajectories above the threshold of 0.02 µm^2/s (sptPALM, rat spinal cord neurons), Q1/Q2/Q3; value: the median Q2 (full-length gephyrin rC4 [1]) did it give?
Answer: 0.05 µm^2 · s^−1

Question: What about the Deff of synaptic trajectories above the threshold of 0.02 µm^2/s (sptPALM, rat spinal cord neurons), Q1/Q2/Q3; value: the median Q2 (full-length gephyrin rC4 [1]) of the same substance?
Answer: 0.04 µm^2 · s^−1

Question: And the explored area of extrasynaptic trajectories above the threshold of 0.02 µm^2/s (sptPALM, rat spinal cord neurons), Q1/Q2/Q3; value: the median Q2 (full-length gephyrin rC4 [1])?
Answer: 0.00096 µm^2

Question: What about the explored area of synaptic trajectories above the threshold of 0.02 µm^2/s (sptPALM, rat spinal cord neurons), Q1/Q2/Q3; value: the median Q2 (full-length gephyrin rC4 [1]) of the same substance?
Answer: 0.00077 µm^2

Question: With “mEos4b-tagged full-length human GlyRβ subunit, wild type (from UniProt P48167-1 23-497) (receptor)” as the substance, how does the Deff of extrasynaptic trajectories above the threshold of 0.02 µm^2/s (sptPALM, rat spinal cord neurons), Q1/Q2/Q3; value: the median Q2 (full-length gephyrin rC4 [1]) read?
Answer: 0.05 µm^2 · s^−1

Question: And the Deff of synaptic trajectories above the threshold of 0.02 µm^2/s (sptPALM, rat spinal cord neurons), Q1/Q2/Q3; value: the median Q2 (full-length gephyrin rC4 [1])?
Answer: 0.04 µm^2 · s^−1

Question: And the explored area of extrasynaptic trajectories above the threshold of 0.02 µm^2/s (sptPALM, rat spinal cord neurons), Q1/Q2/Q3; value: the median Q2 (full-length gephyrin rC4 [1])?
Answer: 0.00091 µm^2

Question: What about the explored area of synaptic trajectories above the threshold of 0.02 µm^2/s (sptPALM, rat spinal cord neurons), Q1/Q2/Q3; value: the median Q2 (full-length gephyrin rC4 [1]) of the same substance?
Answer: 0.00073 µm^2

Question: Which stoichiometry N (full-length gephyrin rC4 [3]) does the source give for “full-length gephyrin rC4 (natural protein)” here?
Answer: 2 and 3

Question: How did the dH (full-length gephyrin rC4 [2]) turn out when “core βL peptide, residues 394-413 (from UniProt P20781 416-435)” was run?
Answer: -46 kJ/mol

Question: For “GlyR β-loop wild type, residues 378-426 of the GlyRβ subunit (from UniProt P20781 400-448) (peptide)”, which dH [4] is on record?
Answer: -67.4 kJ/mol

Question: “GlyR β-loop βL-LO, residues 378-413 (from UniProt P20781 400-435) (peptide)” was tested. Which dH (full-length gephyrin rC4 [2]) did it give?
Answer: -49.4 kJ/mol

Question: With “gephyrin E-domain (GephE) (domain or fragment)” as the substance, how does the stoichiometry N [5] read?
Answer: 2
